# B1: TPR t1 (parent)
# chain: GACCAAUCUGCCCUCAGAGCUCGAGAACAUCUUCGGAUGCAGAGGAGGCAGGCUUCGGUGGCGCGAUAGCGCCAACGUCCUCAACCUCCAAUGCAUCCCACCACAUGAUGAUGCCUGAAGAGCCUUGGUUUUUUG
# Variants of: B1
# Assay: polymerase ribozyme fitness, log enrichment relative to wild type (log ratio); higher = more active; in vitro selection for triplet polymerase activity
# Summary of the method: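 The heterodimeric triplet polymerase ribozyme's subunits were each mutagenized into PCR-built libraries and transcribed. Every library was selected once, in triplicate, by annealing with a biotinylated primer, the partner subunit and triplets, incubating frozen at −7 °C, gel-excising extended constructs, capturing on streptavidin beads and running RT-PCR. Input and output libraries were Illumina-sequenced, with genotypes kept only at ≥10 input reads and ≥1 read per output. Fitness, from inverse-variance-weighted replicate averages, is the base-2 logarithm of genotype enrichment over wild-type enrichment.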
row,Variant,polymerase ribozyme fitness (log ratio)
1,U7G C15A A16G C53A C64U,-1.35
2,C11G G44A,-0.407
3,G69A C104U,-2.37
4,G17U U87A,-2.81
5,C8A C40A A43G G60A,-3.37
6,A50U C86U,-1.27
7,G48C G120A,-0.738
8,A27U C40G G45U A119U,-5.54
9,C11G A41C C56U C72U G93A C123G G135U,-4.47
10,G45U G60C U78G,-3.53
11,U59A C89A C101U G113U,-3.68
12,A18G G122A,-3.35
13,U33A C72A U78C U87A,-5.41
14,A6G C76A C88G A121U G128A,-1.67
15,G36A C102U,-3.67
16,U38G C53G G69U C98A,-6.04
17,U21A G39U C64U A91C,-2.67
18,C13G G25A C56G A91G C99U G120U,-7.51
19,C4A G110A,-2.19
20,U78G C88G,-0.734
21,C12A U14G U81C G93C A119U G120C,-0.255
22,G42U U92A A118U,-2.03
23,C79U A119U,-0.48
24,C34A C49G C62G A121G,-5.41

row,Variant,polymerase ribozyme fitness (log ratio)
1,A18U C123U,-1.12
2,A37C G120A G122A,-1.07
3,C8U A16U G47A C56A C101A C124U,-1.44
4,C49U G77A,0.352
5,A46U A74U U87G G93A C98U,-2.38
6,C73G U125A,-1.21
7,A37G G63U C101G C104G C114U G128A,-4.99
8,C34U G120A,-3.93
9,G10U G48C G60A,-0.865
10,G63C U109C,-4.03
11,U9G G39A C86U G110U,-2.18
12,G44A G48C G60U,-0.957
13,A6U U112A,0.759
14,C34A U131A,-1.94
15,U32C U106G U112G,-0.955
16,G45A U67A C102A G120A,-6.86
17,A2G C12U A66G C79A G122A,-2.62
18,A2U A5G A18U A43C C56U C85A U126C U129A,-3.94
19,U14A A66U C98U,-4.97
20,G45A A74G A95U,-1.3
21,G48A C123A,0.577
22,C28G U32C G51U C79G,-5.29
23,C12U G63U A75C,-0.74
24,C8A A50G A95C,0.286

row,Variant,polymerase ribozyme fitness (log ratio)
1,C12U G42U,-0.819
2,A43G G60U U78C,-2.18
3,C88G G127C,-2.07
4,C34A G45A C86A,-5.49
5,G51U G93C,-4.26
6,G10U A37C C53G A95G,-0.638
7,A43G C124G,0.268
8,C79G C85U,-2.29
9,A6G A95C,-1.16
10,A29G C40G A74U U81A U92G C115A,-3.87
11,A18U C20G A50U C72G G113A,-4.8
12,C4A G52A C53A A90U U130C,-3.34
13,C12U G63C G93U,-1.29
14,G45A G51A C72U,-3.6
15,G45A G60A,-1.47
16,C49G U78G,-0.998
17,A50G C70G,-4.35
18,C56A C80U,-1.23
19,A6C A105G U112C G127A,-2.69
20,G69C C79U G117U U134G,-1.73
21,C28U G47U G93A,-5.35
22,A2U U129A,0.107
23,C53A G63U A74U C102G A103C A111G G117C,-6.88
24,C15A U59A U126A,-4.53

row,Variant,polymerase ribozyme fitness (log ratio)
1,G61U A84G G93U G120U,-0.773
2,G48C A90U U112G,-2.32
3,U54A C72A C73U A91C C115U U129A,-4.31
4,C8U G45C,-0.263
5,G45A C70A,-1.89
6,A75G U96A A105G,-6.14
7,U33G G48U A105C U126G G127C,-6.34
8,A18U U125G,-3.41
9,U21A G36C G113U U133A,-2.25
10,G17U G47A C49U C53U C72U,-4
11,U9C G61A C89U A105C,-3.08
12,C73G C114U,-3.1
13,G47A C53G C85A C89A A91C C94A U116C G120C,-5.21
14,C72G U106G G110U A121U U126A G127A,-5.78
15,A18U A26G G71U G120A G127U,-5.55
16,A5C C115A,-0.966
17,U32C G36A A83C,-3.09
18,G42U G128A,-3.14
19,C40A G63A A84U,-2.88
20,G69U U78G U112A U133C,3.16
21,C49U A84C,-1.9
22,A16G G63U,-1.65
23,C79A G93A G110U,-4.93
24,C53U G60A A83C U87C,-0.3

row,Variant,polymerase ribozyme fitness (log ratio)
1,C11G C72G A91C,-0.65
2,U7G C20A G39A C49G A121G,-2.45
3,A2C U109G C114U U129G,-5.24
4,C11A U21A A50C,-1.95
5,G69C A83G G120C,-1.54
6,A18U A95G,-2.21
7,G44A C73A U87G,-0.428
8,G10C C56G C123U,1.26
9,C12U G48A,-0.765
10,A43C C56U C82A A91U G93U U96C C124G,-2.46
11,G10A A50G C64U C115G,-3.37
12,A75G C98U,-0.624
13,G51U G60A C123U,-1.47
14,C49U C115G,-2.23
15,C20A U21A U54C C94U U109G,-5.29
16,C79U C114U,-2.32
17,G10A G39U,-0.557
18,A26C C49A C98U C114U,-6.14
19,A50U C102A,-2.99
20,G61C C79G C86U,-1.95
21,C12G C70A A75U U112A G113U G120C U133G,-2.57
22,A16U C40U C82U,-2.7
23,C53U C62G C64U C115A,-2.42
24,C8G C22A C62U U106A,-3.64

row,Variant,polymerase ribozyme fitness (log ratio)
1,U106C U125A,-0.83
2,C76A U78A A91U U112G,-3.63
3,C22U U78C,-3.42
4,C99U C115U,-4.48
5,C13A G45C A84C A91C,-4.71
6,G47U U55A C70A C94G,-4.15
7,G17C G61U C114A,-5.45
8,C53U C72U,-0.842
9,C11A C124A,1.26
10,G42A G48A C80A U96A,-6.92
11,C40G U81A,-2.17
12,U109A C115G,-7.19
13,U9A C40A G61U G93C C94G C124U,-0.833
14,C3G C22U G61C U109A,-6.73
15,G42A C89U G117A,-3.19
16,A27G C56G C89U G110U,-3.06
17,G51A G60C U92C U130A,-6.22
18,C86A G93C,-2.88
19,G61U C104A,-1.7
20,C70A C80G U87A C88U C94U C123G,-6.08
21,A6C A50C C70A G127U,-4.88
22,U14A A105G,-5.21
23,A16G C72G U129G,-2.89
24,C28U G39A G61U,-2.23

row,Variant,polymerase ribozyme fitness (log ratio)
1,G60C G117U,-3.4
2,C8G G60C A66C U131G,-3.98
3,C56U C73U A105U,-2.37
4,U54A G58C C64U G110C,-5.03
5,A6G U54A G93A,-0.596
6,C4U A5G U38A C70U G120A,-1.12
7,U9A G25A,-5.66
8,A18U U38G C56U C114A G135U,-2.6
9,C88U C99U,-2.42
10,C8A U32C C49A,0.0595
11,C4G C8A C89A G120C,-0.0855
12,G19U G63A G77U U109A C114U G117C,-6.78
13,U9C U14A G36C,-1.95
14,C11U C97U G113A,-1.74
15,A43G A74U,-2.25
16,U9A G48U A50U G60A C86G,-1.49
17,C8A G77U U106G C115G,-1.95
18,C49A G60A A121C G122A,0.833
19,G58A G60A C99U U130A,-5.34
20,C8U G23A,-4.81
21,G42U G60A C101U A121G,0.281
22,G10U G63A,-1.08
23,G63U A100C,-2.79

# — the RNAGym collection of RNA variant scans (doi:10.1073/pnas.2313332121)
